{"source": "patent CN114539423A", "about": "(dated 2022)", "binders": {"B1": {"name": "CD19scFv-CD80-CD3scFv三特异性融合蛋白 (other)", "chain": "HHHHHHLEDIVLTQSPKFMSTSVGDRVSVTCKASQNVGTNVAWYQQKPGQSPKPLIYSATYRNSGVPDRFTGSGSGTDFTLTITNVQSKDLADYFCQQYNRYPYTSGGGTKLEIKRGGGGSGGGGSGGGGSQVQLQQSGAELVRPGSSVKISCKASGYAFSSYWMNWVKQRPGQGLEWIGQIYPGDGDTNYNGKFKGQATLTADKSSSTAYMQLSGLTSEDSAVYFCARKTISSVVDFYFDYWGQGTTLTVSSEFGGGGSGGGGSGGGGSGGGGSVIHVTKEVKEVATLSCGHNVSVEELAQTRIYWQKEKKMVLTMMSGDMNIWPEYKNRTIFDITNNLSIVILALRPSDEGTYECVVLKYEKDAFKREHLAEVTLSVKADFPTPSISDFEIPTSNIRRIICSTSGGFPEPHLSWLENGEELNAINTTVSQDPETELYAVSSKLDFNMTTNHSFMCLIKYGHLRVNQTFNWNTTKQEHFPDNGGGGSGGGGSGGGGSGGGGSVDADIELTQSPAIMSASPGEKVTMTCSASSSVSYMNWYQQKSGTSPKRWIYDTSKLASGVPARFSGSGSGTSYSLTISGMEAEDAATYYCQQWSSNPFTFGSGTKLELKRGGGGSGGGGSGGGGSQVQLQQSGAELARPGASVKMSCKASGYTFTRYTMHWVKQRPGQGLEWIGYINPSRGYTNYNQKFKDKATLTTDKSSSTAYMELTRLTSEDSAVYYCARYYDDHYSLDYWGQGTTVTVSSWSHPQFEK", "notes": "Expressed in ExpiCHO-S cells; also called 19TriTE; CD19scFv-CD80-CD3scFv重组融合蛋白"}}, "key": {"[1]": {"biological_target": "CD3 (on human T cells) (human)", "sequence (P07766 23-207, chain 1 of 4)": "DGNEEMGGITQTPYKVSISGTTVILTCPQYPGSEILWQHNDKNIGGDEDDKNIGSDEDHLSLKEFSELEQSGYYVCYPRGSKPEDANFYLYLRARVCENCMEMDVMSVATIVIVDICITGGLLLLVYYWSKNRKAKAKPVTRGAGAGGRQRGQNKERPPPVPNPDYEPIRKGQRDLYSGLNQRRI", "sequence (P09693 23-182, chain 2 of 4, further chain)": "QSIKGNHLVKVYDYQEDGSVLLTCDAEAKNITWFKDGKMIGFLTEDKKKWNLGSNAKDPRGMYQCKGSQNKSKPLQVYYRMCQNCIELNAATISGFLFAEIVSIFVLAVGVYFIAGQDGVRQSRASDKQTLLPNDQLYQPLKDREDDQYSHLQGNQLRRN", "sequence (P04234 22-171, chain 3 of 4, further chain)": "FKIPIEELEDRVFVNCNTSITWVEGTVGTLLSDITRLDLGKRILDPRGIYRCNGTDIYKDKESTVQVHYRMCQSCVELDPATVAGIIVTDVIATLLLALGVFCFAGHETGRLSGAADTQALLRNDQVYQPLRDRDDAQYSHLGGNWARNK", "sequence (P20963 22-164, chain 4 of 4, further chain)": "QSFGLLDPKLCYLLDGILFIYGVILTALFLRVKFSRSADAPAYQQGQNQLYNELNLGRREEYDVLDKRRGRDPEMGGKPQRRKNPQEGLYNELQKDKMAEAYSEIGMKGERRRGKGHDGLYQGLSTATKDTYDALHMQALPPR", "assay": "flow cytometry titration on human T cells, same method as for Nalm6, fitted in GraphPad Prism8"}, "[2]": {"biological_target": "T1, CD19 (on Nalm6 leukemia cells) (human, UniProt P15391 20-556)", "T1 construct": "whole, on cells; also called CD19抗原; Nalm6上的CD19抗原", "T1 sequence (looked up)": "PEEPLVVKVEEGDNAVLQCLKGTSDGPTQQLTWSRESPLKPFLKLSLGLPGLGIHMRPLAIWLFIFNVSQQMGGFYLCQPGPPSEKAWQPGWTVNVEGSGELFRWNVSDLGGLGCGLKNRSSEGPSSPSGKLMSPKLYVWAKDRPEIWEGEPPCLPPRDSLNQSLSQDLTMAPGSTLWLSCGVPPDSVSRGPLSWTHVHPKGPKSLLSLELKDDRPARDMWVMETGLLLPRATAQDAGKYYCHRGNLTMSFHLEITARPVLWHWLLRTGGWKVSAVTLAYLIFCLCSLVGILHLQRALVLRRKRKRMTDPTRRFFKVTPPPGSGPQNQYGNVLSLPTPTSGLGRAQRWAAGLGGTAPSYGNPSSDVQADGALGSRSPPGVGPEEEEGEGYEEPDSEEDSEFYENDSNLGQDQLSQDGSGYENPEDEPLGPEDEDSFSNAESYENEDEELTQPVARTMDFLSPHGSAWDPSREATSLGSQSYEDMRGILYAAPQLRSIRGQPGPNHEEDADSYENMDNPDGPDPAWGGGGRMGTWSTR", "assay": "flow cytometry titration (0.05-100 nM) on Nalm6 cells, anti-His then APC anti-mouse IgG detection, fitted in GraphPad Prism8"}}, "data": [{"binder": "B1", "values": [{"measurement": "Kd", "setting": "[1]", "result": 19.2, "unit": "nM"}, {"measurement": "Kd", "setting": "[2]", "result": 11.7, "unit": "nM"}]}]}
